This is an account of results in the Immune Epitope Database (IEDB).

What all share (details): source organism: Human papillomavirus 16
The target of assay [1] is HLA-A*11:01. Description: IEDB peptide-MHC binding, purified MHC/competitive/radioactivity; filed as Kd, often an IC50 or EC50 that approximates it; ≥ and ≤ were set here for values at or beyond the usual limits of such assays.
The target in assay [2] is HLA-A*03:01. Kind of assay: IEDB peptide-MHC binding, purified MHC/competitive/radioactivity; ≥ and ≤ were set here for values at or beyond the usual limits of such assays.
The target in assay [3] is HLA-A*11:01. The assay is described as above.
The target in assay [4] is HLA-A*01:01. Description: IEDB peptide-MHC binding, purified MHC/competitive/radioactivity; filed as Kd, often an IC50 or EC50 that approximates it; ≥ and ≤ were set here for values at or beyond the usual limits of such assays.
Assay [5] concerns the target HLA-A*24:02. Kind of assay: IEDB peptide-MHC binding, purified MHC/competitive/radioactivity; ≥ and ≤ were set here for values at or beyond the usual limits of such assays.
The target of assay [6] is HLA-A*01:01. The description is as above.
The target of assay [7] is HLA-A*24:02. Kind of assay: IEDB peptide-MHC binding, purified MHC/competitive/radioactivity; filed as Kd, often an IC50 or EC50 that approximates it; ≥ and ≤ were set here for values at or beyond the usual limits of such assays.
In assay [8] the target is HLA-A*03:01. The assay is described as above.

pIC50, pKd: −log10 of the molar value.

Regarding QQLLRREVY, the pKd with HLA-A*11:01 [1] was 5.92.

Take HLDKKQRFH: the negative-log IC50 (pIC50) with HLA-A*03:01 [2] is 7.17. Consider AMFQDPQER, for which the pIC50 with HLA-A*03:01 [2] was 6.54; in the assay with HLA-A*11:01 [3] it was 7.92. In the case of HVDIRTLED, the pKd in the assay with HLA-A*01:01 [4] was 5.42. The same measure, in the same setting: the figure for QAEPDRAHY is 5.55. For RAHYNIVTF, the negative logarithm of the IC50 (pIC50) with HLA-A*24:02 [5] was 6.54.

As for RFHNIRGRW, in the assay with HLA-A*24:02 [5], the pIC50 was 6.66.

YSKISEYRHY: the pIC50 in the assay with HLA-A*01:01 [6] was 6.83. For CYSLYGTTL, the negative-log IC50 (pIC50) with HLA-A*24:02 [5] is 6.86. Turning to AVCDKCLK, in the assay with HLA-A*11:01 [3], the pIC50 was 6.30.

With MHQKRTAMF, the pKd with HLA-A*24:02 [7] was 5.35. IVYRDGNPY: the pIC50 in the assay with HLA-A*11:01 [3] was 7.68. On to LLRREVYDF, for which the negative-log Kd (pKd) in the assay with HLA-A*24:02 [7] was 5.32. Take LLIRCINCQK: the pIC50 with HLA-A*03:01 [2] was 7.04; with HLA-A*11:01 [3], 7.62. Take TTDLYCYEQ: the pKd with HLA-A*01:01 [4] was 5.42. Turning to TTLEQQYNK, the pIC50 with HLA-A*11:01 [3] was 8.22.

Take ISEYRHYCY: the pIC50 with HLA-A*01:01 [6] was 7.31; with HLA-A*11:01 [3], 6.78.

On to FYSRIREL, for which, in the assay with HLA-A*24:02 [5], the pIC50 is 6.34.

Regarding IILECVYCK, the pIC50 with HLA-A*11:01 [3] was 6.90. In addition, in the assay with HLA-A*03:01 [8], the pKd was 5.43. On to GTTLEQQYNK, for which, in the assay with HLA-A*11:01 [3], the pIC50 is 8.22.

Regarding VYDFAFRDL, in the assay with HLA-A*24:02 [5], the pIC50 was 6.44.

FQDPQERPRK: in the assay with HLA-A*11:01 [3], the pIC50 is 6.34. DIILECVYCK: the pIC50 in the assay with HLA-A*11:01 [3] is 6.55.

As for EIDGPAGQA, the negative-log Kd (pKd) in the assay with HLA-A*01:01 [4] was 5.49. Consider ETTDLYCY, for which the pIC50 in the assay with HLA-A*01:01 [6] was 6.49.

Turning to SLYGTTLEQ, the pKd in the assay with HLA-A*03:01 [8] was 5.43. GIVCPICSQK: the pIC50 in the assay with HLA-A*11:01 [3] is 7.01.
